Laboratory results published in article PMC5385842 (Science signaling, 2016).

Target: the molecule itself
Test: two-colour single-particle tracking

B1: pre-B cell receptor (pre-BCR) on the surface of 697 cells (complex)
chain 1: GSASAPTLFPLVSCENSPSDTSSVAVGCLAQDFLPDSITFSWKYKNNSDISSTRGFPSVLRGGKYAATSQVLLPSKDVMQGTDEHVVCKVQHPNGNKEKNVPLPVIAELPPKVSVFVPPRDGFFGNPRKSKLICQATGFSPRQIQVSWLREGKQVGSGVTTDQVQAEAKESGPTTYKVTSTLTIKESDWLGQSMFTCRVDHRGLTFQQNASSMCVPDQDTAIRVFAIPPSFASIFLTKSTKLTCLVTDLTTYDSVTISWTRQNGEAVKTHTNISESHPNATFSAVGEASICEDDWNSGERFTCTVTHTDLPSPLKQTISRPKGVALHRPDVYLLPPAREQLNLRESATITCLVTGFSPADVFVQWMQRGQPLSPEKYVTSAPMPEPQAPGRYFAHSILTVSEEEWNTGETYTCVVAHEALPNRVTERTVDKSTEGEVSADEEGFENLWATASTFIVLFLLSLFYSTTVTLFKVK
chain 2: QPVLHQPPAMSSALGTTIRLTCTLRNDHDIGVYSVYWYQQRPGHPPRFLLRYFSQSDKSQGPQVPPRFSGSKDVARNRGYLSISELQPEDEAMYYCAMGARSSEKEEREREWEEEMEPTAARTRVP
chain 3: LLRPTAASQSRALGPGAPGGSSRSSLRSRWGRFLLQRGSWTGPRCWPRGFQSKHNSVTHVFGSGTQLTVLSQPKATPSVTLFPPSSEELQANKATLVCLMNDFYPGILTVTWKADGTPITQGVEMTTPSKQSNNKYAASSYLSLTPEQWRSRRSYSCQVMHEGSTVEKTVAPAECS
chain 4: LWMHKVPASLMVSLGEDAHFQCPHNSSNNANVTWWRVLHGNYTWPPEFLGPGEDPNGTLIIQNVNKSHGGIYVCRVQEGNESYQQSCGTYLRVRQPPPRPFLDMGEGTKNRIITAEGIILLFCAVVPGTLLLFRKRWQNEKLGLDAGDEYEDENLYEGLNLDDCSMYEDISRGLQGTYQDVGSLNIGDVQLEKP
chain 5: ARSEDRYRNPKGSACSRIWQSPRFIARKRGFTVKMHCYMNSASGNVSWLWKQEMDENPQQLKLEKGRMEESQNESLATLTIQGIRFEDNGIYFCQQKCNNTSEVYQGCGTELRVMGFSTLAQLKQRNTLKDGIIMIQTLLIILFIIVPIFLLLDKDDSKAGMEEDHTYEGLDIDQTATYEDIVTLRTGEVKWSVGEHPGQE
  koff: 1.14 s⁻¹
  stoichiometry N: 2
